Numbered stars: 1 amine (or outer) side, 2 acyl side, 3 side chain; on linkers, the order of the positions; unused ones are H or OH. Bridge positions count the residues as written; N and C are the ends. Ends that are not written are not given here. * marks the point of attachment. C20 diacid = O=C(O)CCCCCCCCCCCCCCCCCCC(=O)*; γGlu = O=C(O)[C@H](CCC(=O)[*:2])N[*:1]

The target of experiment [1] is T1, human amylin receptor (amylin 3(a) receptor: human calcitonin receptor plus RAMP-3) (human, UniProt P30988 25-474; O60896 24-148).
T1 sequence (looked up) 1: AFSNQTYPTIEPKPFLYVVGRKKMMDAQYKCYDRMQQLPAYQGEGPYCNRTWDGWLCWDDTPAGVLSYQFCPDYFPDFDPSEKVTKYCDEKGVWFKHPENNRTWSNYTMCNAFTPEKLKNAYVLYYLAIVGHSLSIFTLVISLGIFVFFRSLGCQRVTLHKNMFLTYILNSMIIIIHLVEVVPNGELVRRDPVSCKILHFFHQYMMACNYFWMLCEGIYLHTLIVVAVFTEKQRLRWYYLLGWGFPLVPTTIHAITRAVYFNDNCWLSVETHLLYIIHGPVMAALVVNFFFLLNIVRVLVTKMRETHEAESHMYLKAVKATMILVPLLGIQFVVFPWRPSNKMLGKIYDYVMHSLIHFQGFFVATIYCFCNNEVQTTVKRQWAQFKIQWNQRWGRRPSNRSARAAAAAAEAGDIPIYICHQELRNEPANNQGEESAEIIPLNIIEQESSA
T1 sequence (looked up) 2: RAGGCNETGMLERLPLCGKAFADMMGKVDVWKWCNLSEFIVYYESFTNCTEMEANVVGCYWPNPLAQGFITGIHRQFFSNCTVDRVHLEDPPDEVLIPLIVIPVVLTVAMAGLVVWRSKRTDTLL
The experiment is described as follows: cell-based or functional assay.

In experiment [2] the target is T2, human calcitonin receptor (human, UniProt P30988 25-474).
T2 sequence (looked up): T1 sequence (looked up) 1
The experiment is described as follows: cell-based or functional assay.

In experiment [3] the target is T1, human amylin receptor (amylin 3(a) …). The experiment is described as follows: SPA competition, displacement of 125I-rat amylin from membranes of BHK cells with human calcitonin receptor + RAMP-3 (Assay V). The method, then: The binding assay was performed using scintillation proximity assay (SPA) beads (RPNQ0001) from PerkinElmer and cell membranes from the Amylin 3(a)/CRE-luc cells (as described in Assay (II)) were used. Membranes were prepared in the following way; the cells were rinsed with PBS and incubated with Versene for approximately 5 min before harvesting. The cells were flushed with PBS and the cell-suspension was centrifuged for 5 min at 1000 rpm. Cells were homogenized (ultrathurrax) in a buffer containing 20 mM Na-HEPES and 10 mM EDTA (pH 7.4) and centrifuged at 20.000 rpm for 15 min. The resulting pellet was resuspended, homogenized and centrifuged (20.000 rpm, 15 min) in a buffer containing 20 mM Na-HEPES and 0.1 mM EDTA (pH 7.4, buffer 2). The resulting pellet was resuspended in buffer 2 and protein concentration was measured (BCA protein Assay, Pierce). The homogenate was kept cold during the whole procedure. The membranes were kept at −80° C. until use. The assay was performed in a 384 well Optiplate (PerkinElmer) in a total volume of 40 ul. Membranes were mixed with SPA beads. Final concentration of membranes 35 ng/μL final and SPA beads was 0.05 mg/well. Test-compounds were dissolved in DMSO and further diluted in assay buffer (50 mM Hepes, pH 7.4, 1 mM CaCl2, 5 mM MgCl₂, 0.1% OA and 0.02% Tween20). […] The final mixture was incubated with shaking at 400 rpm for 120 min at 25° C. prior to centrifugation (1500 rpm, 10 min). Samples were analyzed on TopCounter™ (Packard). The IC₅₀ was calculated using (one site binding competition analysis) GraphPad Prism5 as a measure of receptor affinity.

Experiment [4] has as its target T3, human amylin receptor (amylin 3(a) receptor: human calcitonin receptor co-expressed with RAMP-3) (human, UniProt P30988 25-474; O60896 24-148, limits assumed).
T3 construct: whole, on cells; Used as cell membranes prepared from the Amylin 3(a)/CRE-luc BHK cells (Assay V); also called hAmylin-R; hAmylinR
T3 sequence (looked up) 1: T1 sequence (looked up) 1
T3 sequence (looked up) 2: T1 sequence (looked up) 2
As to the kind of experiment: SPA displacement of 125I-rat amylin, hAmylin 3(a) receptor membranes. The method, boiled down: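 One-site competition analysis of SPA counts yielded IC₅₀ as a measure of affinity. Membranes were at 35 ng/μL final; incubation was 120 min at 25° C, pH 7.4.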

The target of the next experiment is T4, rat calcitonin receptor (rat, UniProt P32214 25-516).
T4 construct: whole, on cells; In cell membranes prepared from transiently transfected BHK tk'ts 13 cells (Assay VIII); also called rCTR; rat calcitonin (a) receptor
T4 sequence (looked up): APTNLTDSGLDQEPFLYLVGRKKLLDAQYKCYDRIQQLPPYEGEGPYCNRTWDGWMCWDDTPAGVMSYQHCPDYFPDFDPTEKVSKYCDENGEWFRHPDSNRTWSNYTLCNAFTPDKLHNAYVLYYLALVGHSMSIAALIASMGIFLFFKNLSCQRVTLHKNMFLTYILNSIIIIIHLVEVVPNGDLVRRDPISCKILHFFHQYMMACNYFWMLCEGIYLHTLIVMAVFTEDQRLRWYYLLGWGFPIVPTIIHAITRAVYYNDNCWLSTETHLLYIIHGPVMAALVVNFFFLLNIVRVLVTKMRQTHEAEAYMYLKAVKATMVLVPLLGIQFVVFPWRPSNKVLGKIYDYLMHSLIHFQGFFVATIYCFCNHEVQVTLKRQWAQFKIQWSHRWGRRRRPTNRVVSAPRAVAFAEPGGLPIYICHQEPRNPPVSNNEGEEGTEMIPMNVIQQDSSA
The experiment is described as follows: SPA competition binding, displacement of 125I-Calcitonin from membranes of BHK tk'ts 13 cells with rat calcitonin receptor (Assay VIII).

B1: N^α1-[(4S)-4-carboxy-4-(19-carboxynonadecanoylamino)butanoyl]-[Glu14,Arg17,Pro21,Pro27,His35]-h-amylin (peptide)
peptide: {C20 diacid-γGlu}-KCNTATCATQRLAEFLRHSSPNFGAIPSSTNVGSHTY-NH2
modifications: disulfide 2-7
SMILES: CC[C@H](C)[C@H](NC(=O)[C@H](C)NC(=O)CNC(=O)[C@H](Cc1ccccc1)NC(=O)[C@H](CC(N)=O)NC(=O)[C@@H]1CCCN1C(=O)[C@H](CO)NC(=O)[C@H](CO)NC(=O)[C@H](Cc1c[nH]cn1)NC(=O)[C@H](CCCNC(=N)N)NC(=O)[C@H](CC(C)C)NC(=O)[C@H](Cc1ccccc1)NC(=O)[C@H](CCC(=O)O)NC(=O)[C@H](C)NC(=O)[C@H](CC(C)C)NC(=O)[C@H](CCCNC(=N)N)NC(=O)[C@H](CCC(N)=O)NC(=O)[C@@H](NC(=O)[C@H](C)NC(=O)[C@@H]1CSSC[C@H](NC(=O)[C@H](CCCCN)NC(=O)CC[C@H](NC(=O)CCCCCCCCCCCCCCCCCCC(=O)O)C(=O)O)C(=O)N[C@@H](CC(N)=O)C(=O)N[C@@H]([C@@H](C)O)C(=O)N[C@@H](C)C(=O)N[C@@H]([C@@H](C)O)C(=O)N1)[C@@H](C)O)C(=O)N1CCC[C@H]1C(=O)N[C@@H](CO)C(=O)N[C@@H](CO)C(=O)N[C@H](C(=O)N[C@@H](CC(N)=O)C(=O)N[C@H](C(=O)NCC(=O)N[C@@H](CO)C(=O)N[C@@H](Cc1c[nH]cn1)C(=O)N[C@H](C(=O)N[C@@H](Cc1ccc(O)cc1)C(N)=O)[C@@H](C)O)C(C)C)[C@@H](C)O
notes: also called compound 18
As to B1, in experiment [1], the “Ratio hCT/hAmylin funct.” value was found to be 4.8 and the “hAmylin-R funct. EC50 (pM)” value stood at 154 pM. Also, in experiment [2], the “hCTR funct. EC50 (pM)” value was 742 pM. Further, in experiment [3], the IC50 amounted to 0.554 nM.

For the molecule {C20 diacid-γGlu}-GRCNTATCATQRLAAFLRHSSPNFGAIPSSTNVGPNTY-NH2 (disulfide 3-8), the 50% inhibitory concentration (IC50) in experiment [4] was found to be 0.114 nM.

B2: N^-1-[(4S)-4-carboxy-4-(19-carboxynonadecanoylamino)butanoyl]-Gly[Arg1,His14,Arg17,Pro21,Pro27,Pro34]-h-amylin (peptide)
peptide: {C20 diacid-γGlu}-GRCNTATCATQRLAHFLRHSSPNFGAIPSSTNVGPNTY-NH2
modifications: disulfide 3-8
SMILES: CC[C@H](C)[C@H](NC(=O)[C@H](C)NC(=O)CNC(=O)[C@H](Cc1ccccc1)NC(=O)[C@H](CC(N)=O)NC(=O)[C@@H]1CCCN1C(=O)[C@H](CO)NC(=O)[C@H](CO)NC(=O)[C@H](Cc1c[nH]cn1)NC(=O)[C@H](CCCNC(=N)N)NC(=O)[C@H](CC(C)C)NC(=O)[C@H](Cc1ccccc1)NC(=O)[C@H](Cc1c[nH]cn1)NC(=O)[C@H](C)NC(=O)[C@H](CC(C)C)NC(=O)[C@H](CCCNC(=N)N)NC(=O)[C@H](CCC(N)=O)NC(=O)[C@@H](NC(=O)[C@H](C)NC(=O)[C@@H]1CSSC[C@H](NC(=O)[C@H](CCCNC(=N)N)NC(=O)CNC(=O)CC[C@H](NC(=O)CCCCCCCCCCCCCCCCCCC(=O)O)C(=O)O)C(=O)N[C@@H](CC(N)=O)C(=O)N[C@@H]([C@@H](C)O)C(=O)N[C@@H](C)C(=O)N[C@@H]([C@@H](C)O)C(=O)N1)[C@@H](C)O)C(=O)N1CCC[C@H]1C(=O)N[C@@H](CO)C(=O)N[C@@H](CO)C(=O)N[C@H](C(=O)N[C@@H](CC(N)=O)C(=O)N[C@H](C(=O)NCC(=O)N1CCC[C@H]1C(=O)N[C@@H](CC(N)=O)C(=O)N[C@H](C(=O)N[C@@H](Cc1ccc(O)cc1)C(N)=O)[C@@H](C)O)C(C)C)[C@@H](C)O
Turning to B2, in experiment [4], the IC50 is 0.217 nM.

B3: N^-1-[(4S)-4-carboxy-4-(19-carboxynonadecanoylamino)butanoyl]-Gly[Arg1,Arg17,Pro21,Pro27,His35]-h-amylin (peptide)
peptide: {C20 diacid-γGlu}-GRCNTATCATQRLANFLRHSSPNFGAIPSSTNVGSHTY-NH2
modifications: disulfide 3-8
SMILES: CC[C@H](C)[C@H](NC(=O)[C@H](C)NC(=O)CNC(=O)[C@H](Cc1ccccc1)NC(=O)[C@H](CC(N)=O)NC(=O)[C@@H]1CCCN1C(=O)[C@H](CO)NC(=O)[C@H](CO)NC(=O)[C@H](Cc1c[nH]cn1)NC(=O)[C@H](CCCNC(=N)N)NC(=O)[C@H](CC(C)C)NC(=O)[C@H](Cc1ccccc1)NC(=O)[C@H](CC(N)=O)NC(=O)[C@H](C)NC(=O)[C@H](CC(C)C)NC(=O)[C@H](CCCNC(=N)N)NC(=O)[C@H](CCC(N)=O)NC(=O)[C@@H](NC(=O)[C@H](C)NC(=O)[C@@H]1CSSC[C@H](NC(=O)[C@H](CCCNC(=N)N)NC(=O)CNC(=O)CC[C@H](NC(=O)CCCCCCCCCCCCCCCCCCC(=O)O)C(=O)O)C(=O)N[C@@H](CC(N)=O)C(=O)N[C@@H]([C@@H](C)O)C(=O)N[C@@H](C)C(=O)N[C@@H]([C@@H](C)O)C(=O)N1)[C@@H](C)O)C(=O)N1CCC[C@H]1C(=O)N[C@@H](CO)C(=O)N[C@@H](CO)C(=O)N[C@H](C(=O)N[C@@H](CC(N)=O)C(=O)N[C@H](C(=O)NCC(=O)N[C@@H](CO)C(=O)N[C@@H](Cc1c[nH]cn1)C(=O)N[C@H](C(=O)N[C@@H](Cc1ccc(O)cc1)C(N)=O)[C@@H](C)O)C(C)C)[C@@H](C)O
notes: N-terminal extension by Gly at position -1; also called compound 47
For the molecule B3, in experiment [1], the “Ratio hCT/hAmylin funct.” value worked out at 6 and the “hAmylin-R funct. EC50 (pM)” value is 222 pM. In addition, the “hCTR funct. EC50 (pM)” value in experiment [2] is 1320 pM. In addition, in experiment [3], the IC50 came out at 0.344 nM.

On to KCNTATCATQRLADFLRHSSPNFGAIPSSTNVGSRTY-NH2 (disulfide 2-7) [[Asp14,Arg17,Pro21,Pro27,Arg35]-h-amylin], for which the IC50 in the experiment with rat calcitonin receptor was determined as 30.9 nM.

Values taken from patent US20140087995A1 (published 2014).
